Measurements as given in patent US6107076A, “Soluble mammalian adenylyl cyclase and uses therefor” (Board of Regents, The University of Texas System, priority 1996, dated 2000).
One block for each compound: values may come before it.

What was measured:
[1] = target: mixture of IC1 and IIC2 (non-covalent complex of the C1 domain of type I and the C2 domain of type II adenylyl cyclase) (Bos taurus (Bovine); Rattus norvegicus (Rat)); experiment: equilibrium constant of the model of FIG. 15, derived from the EC50 of activated Gsα for adenylyl cyclase activity of mixed IC1 and IIC2; no direct binding assay
IC1 IIC2 -L3 [2] = target: IC1 IIC2 -L3
[3] = target: mixture of IC1 and IIC2 (non-covalent complex of the C1 domain of type I and the C2 domain of type II adenylyl cyclase) (Bos taurus (Bovine); Rattus norvegicus (Rat))
IC1 IIC2 -L3 [4] = target: IC1 IIC2 -L3; remark: listed apart in the source
[5] = target: T1, soluble adenylyl cyclase chimera IC1 IIC2 -L3 (C1a of type I adenylyl cyclase, residues 271-484, linked to C2a of type II adenylyl cyclase, residues 821-1090) (UniProt P19754+P26769); experiment: Adenylyl cyclase activity of 150,000 g supernatant from E. coli expressing IC1 IIC2 -L3; type: biochemical, mammalian
T1 construct: IC1a includes residues 271-484 of type I adenylyl cyclase; IIC2a includes residues 821-1090 of type II adenylyl cyclase; made in house; host or cells: E. coli TP2000 (150,000 g supernatant)
T1 sequence (P19754+P26769 fused, change not shown): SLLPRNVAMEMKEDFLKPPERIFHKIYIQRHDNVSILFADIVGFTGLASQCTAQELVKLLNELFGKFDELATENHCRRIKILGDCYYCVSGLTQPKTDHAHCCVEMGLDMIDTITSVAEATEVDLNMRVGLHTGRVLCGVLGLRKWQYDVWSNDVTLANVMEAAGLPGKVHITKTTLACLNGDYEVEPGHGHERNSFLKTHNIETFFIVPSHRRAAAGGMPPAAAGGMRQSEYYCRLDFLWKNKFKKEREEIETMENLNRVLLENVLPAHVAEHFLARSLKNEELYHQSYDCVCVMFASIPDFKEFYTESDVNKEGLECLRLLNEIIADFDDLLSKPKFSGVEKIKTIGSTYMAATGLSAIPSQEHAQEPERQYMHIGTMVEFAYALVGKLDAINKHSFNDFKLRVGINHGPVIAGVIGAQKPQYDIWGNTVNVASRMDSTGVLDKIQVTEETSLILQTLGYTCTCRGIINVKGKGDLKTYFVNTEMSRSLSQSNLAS
Description: FIG. 2--Enzyme activity of chimeras.
Data shown are representative of at least two studies.
E. coli that contained the desired plasmids were grown in LB plus 50 μM carbenicillin to OD600 =0.3. Isopropyl-β-D-thiogalactopyranoside(100 μM) and chloramphenicol (0.5 μM) were added to induce expression of adenylyl cyclase for 12 hours. Bacteria were then collected by centrifugation at 4° C. and lysed by incubation at 4° C. for 30 min in 20 mM Tris-HCl (pH 8.0), 1 mM EDTA, 2 mM dithiothreitol (DTT) and protease inhibitors with 0.1 mg/ml of lysozyme. The suspension was sonicated briefly (3×20 sec) during incubation. The lysate was centrifuged (4° C.) at 150,000×g for 30 min, and the supernatant was recovered.
The inventors examined adenylyl cyclase activity in vitro in 150,000 g supernatant fractions from E. coli […] transformed with the various constructs. […] Ca^2+ -calmodulin had no detectable effect on activity, and lysates from cells expressing either IC1 or IIC2 had little adenylyl cyclase activity.
However, the maximal stimulatory effect of the G protein α subunit exceeded that of forskolin (FIG. 4). […] Synergistic activation of the enzyme was thus not due to alternation of apparent substrate affinity.

[6] = target: IC1 (C1a domain of type I adenylyl cyclase, construct of Example 5) (Bos taurus (Bovine))
[7] = target: IC1 (C1a domain of type I adenylyl cyclase, construct of Example 5) (Bos taurus (Bovine)); remark: listed apart in the source
[8] = target: IC1 (C1a domain of type I adenylyl cyclase, construct of Example 5) (Bos taurus (Bovine)); experiment: estimated from the adenylyl cyclase activity of 0.1 µM IC1 titrated with IIC2 without activator (FIG. 13A, model of FIG. 15); no direct binding assay

K4 [1]: 0.4 µM
adenylyl cyclase activity of 150,000 g supernatant (IC1 IIC2 -L1): 50 fold
adenylyl cyclase activity of 150,000 g supernatant (IC1 IIC2 -L5): 50 fold
adenylyl cyclase activity of 150,000 g supernatant (IC1 IIC2 -L3 [2]): 50 fold
adenylyl cyclase activity of purified mixed fragments (8 nM IC1, 6.6 µM IIC2) against the concentration of activated Gsα [3]: > 100 fold
EC50 for activation of adenylyl cyclase activity (IC1 IIC2 -L3 [4]): 1000 nM
Compound: wild-type alpha subunit of the G protein (Gsα)

stimulation of adenylyl cyclase activity ([5]; 150,000 g supernatant, FIG. 3): failed to stimulate
Compound: C=CC1(C)CC(=O)C2C3(C)CCCC(C)(C)C3C(O)C(OC(C)=O)C2(C)O1 (stereo not drawn) [1,9-dideoxyforskolin]

inhibition of adenylyl cyclase activity (P-site inhibitor), mode ([5]; forskolin-activated enzyme, FIG. 7): inhibited noncompetitively
Compound: Nc1ncnc2c1ncn2[C@H]1C[C@H](OP(=O)(O)O)[C@@H](CO)O1 [2'-deoxy-3'-AMP]

EC50 for IIC2, adenylyl cyclase activity with IC1 in the absence of activators [6]: > 10000 nM
apparent EC50 for IIC2, adenylyl cyclase activity with 8 nM IC1, 50 µM FSK and 10 µM GTP[γS]-Gsα [7]: 15 nM
apparent EC50 for IIC2, adenylyl cyclase activity with 8 nM IC1 and 50 µM FSK [7]: 190 nM
Kd [8]: > 10000 nM
Compound: IIC2 (C2 domain of type II adenylyl cyclase, construct of Example 5) (enzyme)
